The labels stand for the following.
B1: HDV Ribozyme (parent)
chain: GGCCGGCAUGGUCCCAGCCUCCUCGCUGGCGCCGGCUGGGCAACAUUCCGAGGGGACCGUCCCCUCGGUAAUGGCGAAUGGGACCCA

The variants in the data set derive from B1. Nature of the data set: self-cleavage, relative activity (ratio to wild type); higher = more cleavage; co-transcriptional.
On to GGCCGGCAUGGUCCCAGCCUCCUCGCUGGCGCCGGCUGGGCAACAUUCCGAGGGGACCGUCCCCGCGGUAAUGGCCAAUGGGACCCA, for which the self-cleavage is 1.15.
For GGCCGGCAUGGUCCCAGCCUCCUCGCUGGCGCCGGCUGGGCAACAUUCCGAGGGGACCGUCCCCGCGGUAAUGGCGAAAGGGACCCA the value was 0.306; for GGCCGGCAUGGUCCCAGCCUCCUCGCUGGCGCCGGCUGGGCAACAUUCCGAGGGGACCGUCCCCGCGGUAAUGGCGAAUGGGACCAA, 0.988.
For GGCCGGCAUGGUCCCAGCCUCCUCGCUGGCGCCGGCUGGGCAACAUUCCGAGGGGACCGUCCCCGCGGUAAUGGCGAAUGGGACCGA the value was 0.752; for GGCCGGCAUGGUCCCAGCCUCCUCGCUGGCGCCGGCUGGGCAACAUUCCGAGGGGACCGUCCCCGCGGAAAUGGCGAAUGGGACCCA, 1.23.
For GGCCGGCAUGGUCCCAGCCUCCUCGCUGGCGCCGGCUGGGCAACAUUCCGAGGGGACCGUCCCCGCGGGAAUGGCGAAUGGGACCCA the value was 0.942; for GGCCGGCAUGGUCCCAGCCUCCUCGCUGGCGCCGGCUGGGCAACAUUCCGAGGGGACCGUCCCCGCGGUAAUGUCGAAUGGGACCCA, 0.424.
For the variant GGCCGGCAUGGUCCCAGCCUCCUCGCUGGCGCCGGCUGGGCAACAUUCCGAGGGGACCGUCCCCGCGGUAAUGCCGAAUGGGACCCA, the self-cleavage amounted to 0.309.
On to GGCCGGCAUGGUCCCAGCCUCCUCGCUGGCGCCGGCUGGGCAACAUUCCGAGGGGACCGUCCCCGCGGUAAAGGCGAAUGGGACCCA, for which the self-cleavage turned out to be 0.739.
Consider GGCCGGCAUGGUCCCAGCCUCCUCGCUGGCGCCGGCUGGGCAACAUUCCGAGGGGACCGUCCCCGCGGUAACGGCGAAUGGGACCCA, for which the self-cleavage came to 0.415.
For GGCCGGCAUGGUCCCAGCCUCCUCGCUGGCGCCGGCUGGGCAACAUUCCGAGGGGACCGUCCCCCCGGUAAGGGCGAAUGGGACCCA the value was 0.831.
For GGCCGGCAUGGUCCCAGCCUCCUCGCUGGCGCCGGCUGGGCAACAUUCCGAGGGGACCGUCCCCGCGGUAAUGGCGAAUGGGACACA the value was 1.11; for GGCCGGCAUGGUCCCAGCCUCCUCGCUGGCGCCGGCUGGGCAACAUUCCGAGGGGACCGUCCCCGCGGUAAUGGCGAAUGUGACCCA, 0.248; for GGCCGGCAUGGUCCCAGCCUCCUCGCUGGCGCCGGCUGGGCAACAUUCCGAGGGGACCGUCCCCGCGGUAAUGGCGAAUGCGACCCA, 0.439.
To GGCCGGCAUGGUCCCAGCCUCCUCGCUGGCGCCGGCUGGGCAACAUUCCGAGGGGACCGUCCCCGCGGUAAUGGUGAAUGGGACCCA belongs 0.212; to GGCCGGCAUGGUCCCAGCCUCCUCGCUGGCGCCGGCUGGGCAACAUUCCGAGGGGACCGUCCCCGCAGUAAUGGCGAAUGGGACCCA, 0.812.
For the variant GGCCGGCAUGGUCCCAGCCUCCUCGCUGGCGCCGGCUGGGCAACAUUCCGAGGGGACCGUCCCCGCGGUAAUGGCGAAUAGGACCCA, the self-cleavage was determined as 0.288.
For GGCCGGCAUGGUCCCAGCCUCCUCGCUGGCGCCGGCUGGGCAACAUUCCGAGGGGACCGUCCCCCCGGUAAUGGCGAAGGGGACCCA the value was 0.396; for GGCCGGCAUGGUCCCAGCCUCCUCGCUGGCGCCGGCUGGGCAACAUUCCGAGGGGACCGUCCCCCCGGUAAUGGCGAAAGGGACCCA, 0.644.
To GGCCGGCAUGGUCCCAGCCUCCUCGCUGGCGCCGGCUGGGCAACAUUCCGAGGGGACCGUCCCCGCGGUAAUGGCGAAUGGGAGCCA belongs 0.569; to GGCCGGCAUGGUCCCAGCCUCCUCGCUGGCGCCGGCUGGGCAACAUUCCGAGGGGACCGUCCCCGCGGUAAUGGCGAAUGGGAUCCA, 0.704; to GGCCGGCAUGGUCCCAGCCUCCUCGCUGGCGCCGGCUGGGCAACAUUCCGAGGGGACCGUCCCCGCGGUAAUGGCGAAUGGGACCCA, 0.988.
For GGCCGGCAUGGUCCCAGCCUCCUCGCUGGCGCCGGCUGGGCAACAUUCCGAGGGGACCGUCCCCGCGAUAAUGGCGAAUGGGACCCA the value was 0.772; for GGCCGGCAUGGUCCCAGCCUCCUCGCUGGCGCCGGCUGGGCAACAUUCCGAGGGGACCGUCCCCGUGGUAAUGGCGAAUGGGACCCA, 0.702.
For the variant GGCCGGCAUGGUCCCAGCCUCCUCGCUGGCGCCGGCUGGGCAACAUUCCGAGGGGACCGUCCCCGCGGUACUGGCGAAUGGGACCCA, the self-cleavage amounted to 0.755.
For GGCCGGCAUGGUCCCAGCCUCCUCGCUGGCGCCGGCUGGGCAACAUUCCGAGGGGACCGUCCCCGCGGUAGUGGCGAAUGGGACCCA the value was 0.917.
To GGCCGGCAUGGUCCCAGCCUCCUCGCUGGCGCCGGCUGGGCAACAUUCCGAGGGGACCGUCCCCGCGGUAAUGGCGCAUGGGACCCA belongs 0.356.
Regarding GGCCGGCAUGGUCCCAGCCUCCUCGCUGGCGCCGGCUGGGCAACAUUCCGAGGGGACCGUCCCCGCGGUAAUUGCGAAUGGGACCCA, the self-cleavage was 0.47.
For GGCCGGCAUGGUCCCAGCCUCCUCGCUGGCGCCGGCUGGGCAACAUUCCGAGGGGACCGUCCCCGCGGUAAUCGCGAAUGGGACCCA the value was 0.289.
In the case of GGCCGGCAUGGUCCCAGCCUCCUCGCUGGCGCCGGCUGGGCAACAUUCCGAGGGGACCGUCCCCGCGGUAAUGGCGAAUGGCACCCA, the self-cleavage was 0.133.
For GGCCGGCAUGGUCCCAGCCUCCUCGCUGGCGCCGGCUGGGCAACAUUCCGAGGGGACCGUCCCCGCGGUAAUGGCGAAUGGGGCCCA the value was 0.698; for GGCCGGCAUGGUCCCAGCCUCCUCGCUGGCGCCGGCUGGGCAACAUUCCGAGGGGACCGUCCCCGCGGUAAUGGCGAAUGGGCCCCA, 0.703.
